In US20150275238A1, “GENETICALLY ENGINEERED MICROBES AND METHODS FOR CONVERTING ORGANIC ACIDS TO ALCOHOLS” (UNIVERSITY OF GEORGIA RESEARCH FOUNDATION, INC., priority 2014, published 2015):

Legend:
[1] = substrate: CC=O; experiment: AdhA alcohol dehydrogenase enzyme assay, Michaelis-Menten kinetics in cell extracts of P. furiosus strain A; type: biochemical, Thermoanaerobacter strain X514; conditions: other: recombinant AdhA in cell extracts of P. furiosus strain A, 50 mM Mops pH 7.5, 2 mM DTT, 70° C., nonlinear regression
Procedure: (§1) The protein content was determined using a standard Bradford assay. Whole-cell extracts and S100 were kept anoxic at all times, and enzyme activity assays were performed under reducing conditions in anoxic 50 mM Mops (pH 7.5) plus 2 mM DTT at 70° C. […] Vmax and Km values of AdhA were calculated using nonlinear regression (nls function) in R (R Development Core Team, 2013, Available at www.R-project.org/).

[2] = substrate: CCCC=O; experiment: as above; type: biochemical, Thermoanaerobacter strain X514; conditions: other: recombinant AdhA in cell extracts of P. furiosus strain A, 50 mM Mops pH 7.5, 2 mM DTT, 70° C., nonlinear regression
Procedure: as §1

B1: T. X514 AdhA (Thermoanaerobacter ethanolicus) (protein)
chain: MWETKINPNKVFELRCKNTTYFGIGSIKKIKDILEVLKNKGINNVILVTGKGSYKASGAWDVVKPALETLGFKYSLYDKVGPNPTVDMIDEAAKIGRETGAKAVIGIGGGSPIDTAKSVAVLLEYTDKNARELYEQKFIPEKAAPIIAINLTHGTGTEVDRFAVATIPEKNYKPAIAYDCLYPMYAIDDPSLMTKLDKKQTIAVTIDALNHVTEAATTLVASPYSVLMAKETVRLIVRYLPAAVNDPENLVARYYLLYASALAGISFDNGLLHLTHALEHPLSAVKPEIAHGLGLGAILPAVVKAIYPSVAEVLAEVYSPIVPGLKGLPAEAEYVAKKVEEWLFKVGCTQKLSDFGFTKEDIPTLVRLAKTTPSLDGLLSNAPVEATEAVIAKIYEESF
Km [1]: 63 µM | Km [2]: 166 µM
